# Measurements as given in the supplement of paper PMC7125110.
# ± gives the standard error. For some of these results: This sample holds only a part of the variants without activity.
# B1: glmS ribozyme (parent)
# chain: AUAAAAGCGCCAGAACUACAGAAAUGUAGUUGACGAGGAGGAGGUUUAUCGAAUUUUCGGCGGAUGCCUCCAAA
# Legend:
# Details in all cases: with glucosamine-6-phosphate
# [1] = variants of: B1; experiment: kcat; higher = faster cleavage; RNA array
# In short: (§1)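 Over ~14 h at 37 °C, tiles were imaged as glucosamine-6-phosphate (40 μM to 10 mM) in HEPES/KCl/Mg(OAc)2 buffer flowed across sequenced MiSeq chips. The chips carried barcoded ribozyme variants transcribed in situ by E. coli RNA polymerase and tracked with a hybridised Cy3 probe. After normalisation to baseline and to non-cleaving reference variants, one- or two-exponential decay fits of per-tile medians gave kobs. kcat and KM followed from weighted Michaelis–Menten fits across concentrations.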
# [2] = variants of: B1; experiment: self-cleavage kobs at 10000 uM GlcN6P; higher = faster cleavage; RNA array
# In short: as §1
# [3] = variants of: B1; experiment: self-cleavage kobs at 40 uM GlcN6P; higher = faster cleavage; RNA array
# In short: as §1
# [4] = variants of: B1; experiment: KM; higher = weaker cofactor use; RNA array
# In short: as §1
# [5] = variants of: B1; experiment: self-cleavage kobs at 640 uM GlcN6P; higher = faster cleavage; RNA array
# In short: as §1
# [6] = variants of: B1; experiment: self-cleavage kobs at 2500 uM GlcN6P; higher = faster cleavage; RNA array
# In short: as §1
# [7] = variants of: B1; experiment: self-cleavage kobs at 160 uM GlcN6P; higher = faster cleavage; RNA array
# In short: as §1
Variant,kcat [1] [s⁻¹],self-cleavage kobs at 10000 uM GlcN6P [2] [s⁻¹],self-cleavage kobs at 40 uM GlcN6P [3] [s⁻¹],KM [4] [µM],self-cleavage kobs at 640 uM GlcN6P [5] [s⁻¹],self-cleavage kobs at 2500 uM GlcN6P [6] [s⁻¹],self-cleavage kobs at 160 uM GlcN6P [7] [s⁻¹]
C10G C70A,< 1e-05,< 1e-05,–,–,–,–,–
C10G C50U,< 1e-05,< 1e-05,< 1e-05,–,–,–,–
C11G C70U,1.5e-05 ± 6.7e-07,–,–,138 ± 61,–,–,–
C10A G32U A53U C67U,1.23e-05 ± 4.1e-06,–,–,–,–,–,–
C11U A33C,1.8e-05 ± 2.7e-06,–,–,8710 ± 2600,–,–,–
C11U A33U,7.95e-05 ± 1.1e-06,6.9e-05 ± 5.3e-06,–,1500 ± 99,2.29e-05 ± 1.1e-05,5.06e-05 ± 9.1e-06,–
C11A C67A,6.14e-05 ± 1e-05,5.12e-05 ± 9.8e-06,–,–,7.25e-05 ± 1.2e-05,6.18e-05 ± 1.1e-05,–
C11U C50A,< 1e-05,< 1e-05,–,–,–,–,< 1e-05
C10U U56G,3.3e-05 ± 4.5e-06,2.92e-05 ± 6.7e-06,–,–,–,2.86e-05 ± 8.5e-06,–
C10U U56C,2.01e-05 ± 2.1e-06,–,< 1e-05,–,–,–,–
C10A A12C,0.00025 ± 4.4e-05,0.000185 ± 1.9e-05,–,2520 ± 930,4.03e-05 ± 8.4e-06,0.000143 ± 1.2e-05,–
C10U C71U,3.48e-05 ± 5.8e-06,3.05e-05 ± 5.4e-06,< 1e-05,–,–,1.75e-05 ± 5.3e-06,–
C10U C71G,1.65e-05 ± 5.1e-06,–,< 1e-05,–,–,–,–
C11U C71U,0.00111 ± 0.0002,0.00102 ± 0.0002,0.000116 ± 4.3e-05,1030 ± 320,0.000418 ± 7.1e-05,0.000796 ± 0.00014,0.000143 ± 2.6e-05
C10U U69C,2.21e-05 ± 5.7e-06,–,–,–,–,–,–
C10U U69A,1.11e-05 ± 3.7e-06,–,–,–,–,–,–
A12G A42G,0.00162 ± 0.0003,0.00103 ± 0.00012,–,4880 ± 1300,0.000189 ± 1.9e-05,0.00064 ± 7.7e-05,3.49e-05 ± 1.3e-05
A12C A48G,5.38e-05 ± 6.8e-06,4.66e-05 ± 7.1e-06,–,–,–,4.26e-05 ± 1.2e-05,–
A12C A48U,0.000191 ± 4.1e-06,0.000147 ± 1.6e-05,–,2890 ± 150,3.34e-05 ± 9.3e-06,9.1e-05 ± 1.6e-05,–
C11U A14C C70U,0.000322 ± 0.00016,0.000224 ± 6.8e-05,–,–,0.000221 ± 4.6e-05,0.000599 ± 0.00016,–
C11G C67G,3.76e-05 ± 1.2e-05,–,–,–,5.1e-05 ± 1.3e-05,–,–

Variant,kcat [1] [s⁻¹],self-cleavage kobs at 10000 uM GlcN6P [2] [s⁻¹],self-cleavage kobs at 40 uM GlcN6P [3] [s⁻¹],KM [4] [µM],self-cleavage kobs at 640 uM GlcN6P [5] [s⁻¹],self-cleavage kobs at 2500 uM GlcN6P [6] [s⁻¹],self-cleavage kobs at 160 uM GlcN6P [7] [s⁻¹]
A12C U30G,0.00614 ± 0.0015,0.00422 ± 0.00051,6.93e-05 ± 1.4e-05,5240 ± 1800,0.000671 ± 0.00015,0.00164 ± 0.00034,0.000166 ± 3.1e-05
A12C U30C,0.00413 ± 0.0012,0.00306 ± 0.00028,6.11e-05 ± 7.7e-06,3850 ± 1500,0.000707 ± 9.2e-05,0.00145 ± 0.0002,0.000121 ± 2e-05
C10A U46G C50U C68U,3.67e-05 ± 1.3e-05,–,–,–,–,–,–
C10A A48U,< 1e-05,< 1e-05,–,–,< 1e-05,–,–
C11U C70G C71U,5.18e-05 ± 1e-05,5.18e-05 ± 1.3e-05,–,–,7.99e-05 ± 2.7e-05,–,–
C10G G62U,< 1e-05,–,< 1e-05,–,–,–,–
C11A G59A,0.000719 ± 4.8e-05,0.000516 ± 5.9e-05,–,4140 ± 480,9.86e-05 ± 1.6e-05,0.000248 ± 5e-05,–
G9A G13C U30G G63U U69G,< 1e-05,–,< 1e-05,–,–,< 1e-05,–
C11A U69A,4.95e-05 ± 1.6e-05,–,–,–,6.89e-05 ± 2.4e-05,7.69e-05 ± 2.5e-05,–
C11A U65G,3.43e-05 ± 4.3e-07,3.18e-05 ± 1.3e-05,< 1e-05,777 ± 84,< 1e-05,–,–
C10A U56A,< 1e-05,< 1e-05,–,–,–,–,–
C10G A12G A53C G59C,1.95e-05 ± 6.6e-06,–,–,–,–,–,–
C10U C67G,2.65e-05 ± 6.6e-06,–,–,–,–,2.88e-05 ± 1.1e-05,–
G9A A42G,1.5e-05 ± 2.2e-06,–,< 1e-05,–,–,–,–
C11U G40U,0.000224 ± 2.2e-05,0.000159 ± 1.6e-05,–,3980 ± 910,2.87e-05 ± 7.5e-06,0.000111 ± 3.6e-05,–
G9U U69G,1.33e-05 ± 5.4e-06,< 1e-05,–,–,–,< 1e-05,–
C11U G29C C50G C68G,7.23e-05 ± 1.9e-05,5.44e-05 ± 1e-05,–,–,7.71e-05 ± 2.1e-05,9.67e-05 ± 1.5e-05,0.000134 ± 2.7e-05
C11A U31C,7.57e-05 ± 7.2e-06,6.39e-05 ± 1.1e-05,–,1620 ± 610,–,5.09e-05 ± 1.4e-05,–
C10U C11U A12G,2.44e-05 ± 6.4e-06,–,–,–,–,–,< 1e-05
C10U A33U,4.38e-05 ± 4e-06,3.99e-05 ± 6.2e-06,< 1e-05,–,–,4.07e-05 ± 1.2e-05,–
C11U U30G,0.00224 ± 0.00076,0.00194 ± 0.00021,0.0001 ± 1.4e-05,–,0.000444 ± 7.4e-05,0.00185 ± 0.00033,0.00018 ± 2.9e-05
